Experimental data taken from patent publication US20100239568A1, “DIAGNOSTICS AND TREATMENTS FOR TUMORS” (GENENTECH, INC., priority 2006, published 2010).

Assays:
HUVEC cells = test: HUVEC proliferation assay; format: cell-based, human; settings: found in high salt fraction of EL4 and L1210 tumor lysates
Description: HUVEC proliferation assay: HUVEC at passage less than 8 were used in the study. Day 1: 3000 cells/well (96-well plate) were plated onto 1% gelatin-coated plate in the assay media (DMEM:F12 50:50) with 1.5% FBS. Day 2: Media was changed and cells were treated with various growth factors or conditioned media. Day 3: ^3H-thymidine was added at 0.5 μCi/well. Day 4: 250 mM EDTA/well was added to stop the reaction in the morning. Cells were harvested onto 96-well filter plate and washed with water 3 times. ^3H samples were counted with TOPCOUNT liquid scintillation counter.

monocytes = test: Monocyte migration assay; format: cell-based, human; settings: found in high salt fraction of EL4 and L1210 tumor lysates
Description: Monocyte migration assay: Step 1: isolation of monocyte from human PBMC. Blood was diluted with PBS 1:1 (v/v). The diluted blood was slowly added on top of Ficoll and centrifuged at 3000 rpm for 15 min at room temperature (RT) without break. Plasma was removed and white cells were collected (9˜5 ml interphase). Cells were washed in migration buffer containing PBS with 0.5% BSA (low in endotoxin), spun at 1850 rpm (9˜800 g) for 10 min at RT and cells were counted. Step 2: Magnetic labeling of cells. Cell pellet was resuspended in MACS buffer containing PBS with 0.5% BSA (low in endotoxin) and 2 mM EDTA, 30 μl per 10^7 cells. FcR blocking reagent and Biotin-antibody cocktails were added and mixed well. The cells were then incubated for 10 min at 4° C. after which 30 μl more MACS buffer per 10^7 cells was added and anti-biotin Microbeads was added. This was mixed well and incubated for 10 min at 4° C. Cells were washed with MACS buffer by adding 10-20 fold more of the labeling volume, spun at 300g (1250 rpm) for 10 min. Cells were resuspended in up to 10^8 cells in 2 ml buffer. Step 3: Magnetic separation with LS columns. LS column (Miltenyi Biotec) was placed in the magnetic field holder. Column was rinsed with MACS buffer. Cell suspension was applied to the column. Unlabelled flow was collected, which represents enriched monocyte fraction. […]

B1: bFGF: growth factor found in the high salt fraction of resistant tumor lysates (protein, UniProt P15655 10-154, looked up)
Fibroblast growth factor 2: PALPEDGGAAFPPGHFKDPKRLYCKNGGFFLRIHPDGRVDGVREKSDPHVKLQLQAEERGVVSIKGVCANRYLAMKEDGRLLASKCVTEECFFFERLESNNYNTYRSRKYSSWYVALKRTGQYKLGSKTGPGQKAILFLPMSAKS
proliferation of HUVEC cells (HUVEC cells): contribute to the proliferation of HUVEC cells
chemotactic activity (monocytes): not chemotactic activity
